Laboratory results from patent US20230226223A1 (SOLA BIOSCIENCES, published 2023).
Where two headings read alike, the source gives them in different places.

Experiments:
Experiment in all cases: cell-based or functional assay
[1] = biological target: GFP-HTTQ74 reporter construct
[2] = biological target: GFP-HTTQ74 reporter construct; remark: listed apart in the source
[3] = biological target: GFP-HTTQ74 reporter construct; remark: listed apart in the source
[4] = biological target: GFP-HTTQ74 reporter construct; remark: listed apart in the source
[5] = biological target: GFP-HTTQ74 reporter construct; remark: listed apart in the source

B1: Construct 15, JB1-2XQBP1 (no flexible linker) (designed binder)
chain: MGKDYYQTLGLARGASDEEIKRAYRRQALRYHPDKNKEPGAEEKFKEIAEAYDVLSDPRKREIFDRYGEEGLKGSDIAAASNWKWWPGIFDGLESNWKWWPGIFD
% Aggregation (relative to Q74 alone), filter trap assay [1]: 24.5%

B2: Construct 34, JB1-QBP1-QBP1 (1) (designed binder)
chain: MGKDYYQTLGLARGASDEEIKRAYRRQALRYHPDKNKEPGAEEKFKEIAEAYDVLSDPRKREIFDRYGEEGLKGSGGGGSGGGGSGGGGSGGGGSAAASNWKWWPGIFDLEGDYKDDDDKGSRAAASNWKWWPGIFDLE
Reduction of Aggregation (%), filter trap assay [2]: 96.3%
Reduction (%) of protein aggregation [3]: 96.1%

B3: Construct 62, DnaJ-QBP1-QBP1 (designed binder)
chain: MAKQDYYEILGVSKTAEEREIRKAYKRLAMKYHPDRNQGDKEAEAKFKEIKEAYEVLTDSQKRAAYDQYGHADIGGGGSGGGGSGGGGSAAASNWKWWPGIFDLEGDYKDDDDKGSRAAASNWKWWPGIFDLE
Reduction (%) of protein aggregation [3]: 15.7%

B4: Construct 4, JB1-2XQBP1 (designed binder)
chain: MGKDYYQTLGLARGASDEEIKRAYRRQALRYHPDKNKEPGAEEKFKEIAEAYDVLSDPRKREIFDRYGEEGLKGSDIGGGGSGGGGSGGGGSGGGGSAAASNWKWWPGIFDGLESNWKWWPGIFD
% Aggregation (relative to Q74 alone), filter trap assay [4]: 9.86%
% Aggregation (relative to Q74 alone), filter trap assay [5]: 29.7%
% Aggregation (relative to Q74 alone), filter trap assay [1]: 24.9%
Reduction of Aggregation (%), filter trap assay [2]: 24.9%

B5: Construct 16, JB1-2XQBP1 (rigid linker) (designed binder)
chain: MGKDYYQTLGLARGASDEEIKRAYRRQALRYHPDKNKEPGAEEKFKEIAEAYDVLSDPRKREIFDRYGEEGLKGSDIEAAAKAAASNWKWWPGIFDGLESNWKWWPGIFD
% Aggregation (relative to Q74 alone), filter trap assay [1]: 17.6%
